Measured values: PMC5548745, “Agonist-induced dimer dissociation as a macromolecular step in G protein-coupled receptor signaling” (Nature Communications, 2017)

Tests used:
FZD6–FZD6 dimer = assay: dcFRAP of V5-FZD6-mCherry/FZD6-GFP (FZD6 dimerization); format: cell-based, human; settings: HEK293, after CL
Procedure, shortened: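 Live cells co-expressing V5-FZD6-mCherry and FZD6-GFP, surface V5 tag crosslinked with biotin-anti-V5 plus avidin in BE buffer at RT. Membrane areas photobleached, recovery imaged (488/561 nm) over 100 s; mobile fraction from background/bleach-corrected, pre-bleach-normalized intensity at 85-101 s. Cells with <40% crosslink-induced mobility reduction excluded.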

SNAP-FZD6 = SNAP-FZD6 internalization by confocal microscopy; format: cell-based; settings: HEK293; WNT-5A 300 ng ml^−1, 15 min
Protocol: SNAP-FZD6 and SNAP-β2-AR were imaged in living cells using a Zeiss LSM710 equipped with a 40×, 1.2 NA C-Apochromat objective. The cell-impermeable SNAP substrate SNAP-Surface 549 (New England Biolabs) was added (1:1000, 15 min), washed twice in BE buffer and imaged using the 561 nm laser line. SNAP-FZD6 and SNAP-β2-AR were stimulated with 300 ng ml^−1 WNT-5A and 10 µM isoproterenol, respectively, and fluorescence was monitored over time.

B1: WNT-5A: recombinant carrier-free WNT-5A (R&D Systems), agonist for FZDs (protein, UniProt P41221 62-380, looked up)
Protein Wnt-5a: IIGAQPLCSQLAGLSQGQKKLCHLYQDHMQYIGEGAKTGIKECQYQFRHRRWNCSTVDNTSVFGRVMQIGSRETAFTYAVSAAGVVNAMSRACREGELSTCGCSRAARPKDLPRDWLWGGCGDNIDYGYRFAKEFVDARERERIHAKGSYESARILMNLHNNEAGRRTVYNLADVACKCHGVSGSCSLKTCWLQLADFRKVGDALKEKYDSAAAMRLNSRGKLVQVNSRFNSPTTQDLVYIDPSPDYCVRNESTGSLGTQGRLCNKTSEGMDGCELMCCGRGYDQFKTVQTERCHCKFHWCCYVKCKKCTEIVDQFVCK
- mobile fraction of FZD6-GFP after WNT-5A, 5 min (FZD6–FZD6 dimer; WNT-5A 300 ng ml^−1, 5 min, 12 ROIs): 71.8 ± 3.2%
- mobile fraction of FZD6-GFP after WNT-5A, 20 min (FZD6–FZD6 dimer; WNT-5A 300 ng ml^−1, 20 min, 15 ROIs): 61.0 ± 2.2%
- internalization of SNAP-FZD6 (SNAP-FZD6): minimal internalization of SNAP-FZD6 was observed and this was not enhanced by the addition of recombinant WNT-5A
